This is an account of results in PMC6919630, “Novel cholinesterase paralogs of Schistosoma mansoni have perceived roles in cholinergic signalling and drug detoxification and are essential for parasite survival” (PLoS Pathogens, 2019).

One may read the Km as the substrate concentration at which the rate is half of its maximum. The Vmax is the rate approached at saturating substrate.

The target in data set [1] is T1, SmBChE1 (Schistosoma mansoni, UniProt A0A3Q0KKW0).
T1 construct: full length minus signal peptide, C-terminal 6-His tag (pPICZalphaA), secreted from Pichia pastoris X-33, IMAC purified; synthetic ORF
Nature of the data set: Ellman assay, inhibition of BcSCh hydrolysis. It counts as biochemical. The settings on record: BcSCh 2 mM; 20 min preincubation at RT; pH 7.4; organophosphate.

Another data set addresses T2, SmAChE1 (Schistosoma mansoni, UniProt Q71SU7).
T2 construct: full length minus signal peptide, C-terminal 6-His tag (pPICZalphaA), secreted from Pichia pastoris X-33, IMAC purified; synthetic ORF
Nature of the data set: Ellman assay, inhibition of AcSCh hydrolysis. To be noted: AcSCh 2 mM; 20 min preincubation at RT; pH 7.4; organophosphate. The class given is biochemical. Background: Ellman's reagent forms a yellow product with free thiols.

The next data set addresses T3, SmAChE2 (Schistosoma mansoni, UniProt A0A3Q0KMM5).
T3 construct: full length minus signal peptide, C-terminal 6-His tag (pPICZalphaA), secreted from Pichia pastoris X-33, IMAC purified; synthetic ORF
Nature of the data set: Ellman assay, inhibition of AcSCh hydrolysis. The class given is biochemical. To be noted: AcSCh 2 mM; 20 min preincubation at RT; pH 7.4; organophosphate.

Data set [2] concerns the target T1, SmBChE1. Nature of the data set: Ellman assay, inhibition of BcSCh hydrolysis. It counts as biochemical. To be noted: BcSCh 2 mM; 20 min preincubation at RT; pH 7.4.
The test system of the next data set is CC(=O)SCC[N+](C)(C)C. Nature of the data set: purified protein. The class given is biochemical, Schistosoma mansoni. The settings on record: 0.1 M sodium phosphate, pH 7.4, 0.5 mM DTNB.
The next data set concerns CCCC(=O)SCC[N+](C)(C)C. Nature of the data set: purified protein. To be noted: 0.1 M sodium phosphate, pH 7.4, 0.5 mM DTNB. It counts as biochemical, Schistosoma mansoni.

T1 sequence (A0A3Q0KKW0 entry or part of it): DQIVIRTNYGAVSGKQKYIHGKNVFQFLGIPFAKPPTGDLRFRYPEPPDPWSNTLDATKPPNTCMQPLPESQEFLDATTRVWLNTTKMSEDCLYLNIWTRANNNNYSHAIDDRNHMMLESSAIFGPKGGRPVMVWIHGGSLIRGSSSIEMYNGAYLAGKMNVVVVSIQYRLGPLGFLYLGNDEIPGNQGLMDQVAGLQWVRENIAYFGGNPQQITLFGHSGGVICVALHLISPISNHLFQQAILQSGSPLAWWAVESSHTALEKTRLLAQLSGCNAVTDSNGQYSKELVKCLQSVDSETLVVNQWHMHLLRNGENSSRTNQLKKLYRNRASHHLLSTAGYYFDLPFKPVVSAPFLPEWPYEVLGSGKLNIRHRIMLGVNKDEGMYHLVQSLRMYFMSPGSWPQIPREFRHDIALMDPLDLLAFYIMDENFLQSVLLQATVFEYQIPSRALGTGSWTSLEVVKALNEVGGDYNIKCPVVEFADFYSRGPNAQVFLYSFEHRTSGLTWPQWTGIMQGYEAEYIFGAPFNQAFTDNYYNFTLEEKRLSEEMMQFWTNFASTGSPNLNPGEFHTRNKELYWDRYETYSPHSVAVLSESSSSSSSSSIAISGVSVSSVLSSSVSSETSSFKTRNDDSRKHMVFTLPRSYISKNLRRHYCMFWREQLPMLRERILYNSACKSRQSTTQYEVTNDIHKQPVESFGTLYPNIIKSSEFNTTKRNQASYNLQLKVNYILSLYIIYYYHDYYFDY
T3 sequence (A0A3Q0KMM5 entry or part of it): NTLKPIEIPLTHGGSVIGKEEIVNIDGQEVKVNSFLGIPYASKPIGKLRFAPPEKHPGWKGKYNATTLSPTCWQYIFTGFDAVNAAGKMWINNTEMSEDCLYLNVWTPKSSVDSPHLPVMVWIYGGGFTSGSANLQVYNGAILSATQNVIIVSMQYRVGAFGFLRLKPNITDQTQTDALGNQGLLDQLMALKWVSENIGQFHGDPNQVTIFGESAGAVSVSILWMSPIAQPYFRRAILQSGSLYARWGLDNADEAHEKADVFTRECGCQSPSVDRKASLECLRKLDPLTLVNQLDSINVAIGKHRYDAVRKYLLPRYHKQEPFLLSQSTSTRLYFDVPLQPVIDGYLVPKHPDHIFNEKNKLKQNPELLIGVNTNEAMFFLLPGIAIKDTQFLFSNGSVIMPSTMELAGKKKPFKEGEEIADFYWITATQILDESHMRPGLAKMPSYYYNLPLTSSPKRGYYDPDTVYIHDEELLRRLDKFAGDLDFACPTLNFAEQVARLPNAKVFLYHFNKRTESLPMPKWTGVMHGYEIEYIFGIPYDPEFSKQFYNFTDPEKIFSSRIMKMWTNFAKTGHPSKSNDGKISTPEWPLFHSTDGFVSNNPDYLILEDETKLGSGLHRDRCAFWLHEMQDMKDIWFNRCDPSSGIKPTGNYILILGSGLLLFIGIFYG
T2 sequence (Q71SU7 entry or part of it): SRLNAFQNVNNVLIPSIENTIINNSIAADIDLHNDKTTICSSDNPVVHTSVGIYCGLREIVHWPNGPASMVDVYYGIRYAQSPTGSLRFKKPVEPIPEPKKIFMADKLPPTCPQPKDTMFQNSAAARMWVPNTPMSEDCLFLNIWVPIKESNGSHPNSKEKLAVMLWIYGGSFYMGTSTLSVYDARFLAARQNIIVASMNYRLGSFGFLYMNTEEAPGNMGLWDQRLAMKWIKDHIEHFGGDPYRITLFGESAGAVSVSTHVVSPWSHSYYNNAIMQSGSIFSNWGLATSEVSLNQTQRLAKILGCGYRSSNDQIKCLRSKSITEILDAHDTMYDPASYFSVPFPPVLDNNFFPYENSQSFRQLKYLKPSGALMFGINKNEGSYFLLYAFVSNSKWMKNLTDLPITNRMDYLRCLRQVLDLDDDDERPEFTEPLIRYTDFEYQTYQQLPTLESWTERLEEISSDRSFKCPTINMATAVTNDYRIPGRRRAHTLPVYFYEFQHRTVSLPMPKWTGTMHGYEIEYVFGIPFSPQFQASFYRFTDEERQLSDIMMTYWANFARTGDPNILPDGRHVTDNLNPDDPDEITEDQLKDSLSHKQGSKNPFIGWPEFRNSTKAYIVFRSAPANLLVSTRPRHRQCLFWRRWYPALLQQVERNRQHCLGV

With `COP(=O)(OC)OC=C(Cl)Cl` [DDVP, 2,2-dichlorovinyl dimethyl phosphate], at SmBChE1 [1], the “inhibition at 1, 5 and 10 μM” value was “BChE activity of schistosome extracts and recombinant SmBChE1 significantly decreased in the presence of”. Besides, the “inhibition at 1 μM” value against SmAChE1 was “preferred substrate activity of both SmAChE1 and SmAChE2 was inhibited by DDVP”; against SmAChE2, “preferred substrate activity of both SmAChE1 and SmAChE2 was inhibited by DDVP”.

On to `CC(C)NP(=O)(NC(C)C)OP(=O)(NC(C)C)NC(C)C` [iso-OMPA], for which the “inhibition at 1 mM” value at SmBChE1 [2] is “iso-OMPA, a specific inhibitor of BChE, only inhibited SmBChE1 activity”.

On to SmAChE1 (Schistosoma mansoni), for which, in the data set with CC(=O)SCC[N+](C)(C)C, the Km is reported as 5.83 ± 1.62 mM and the Vmax stood at 0.00557 µmol/min/mg.

Turning to SmAChE2 (Schistosoma mansoni), in the data set on CC(=O)SCC[N+](C)(C)C, the Km is reported as 10.87 ± 6.17 mM and the Vmax amounted to 0.00559 µmol/min/mg.

Consider SmBChE1 (Schistosoma mansoni), for which, in the data set on CCCC(=O)SCC[N+](C)(C)C, the Km is 34.38 ± 12.71 mM and the Vmax turned out to be 0.0017 ± 9e-05 µmol/min/mg.
